Measured values: patent US20180282410A1 (Hoffmann-La Roche, published 2018)
Where two headings read alike, the source gives them in different places.

How the values were obtained:
Assay in all cases: cell-based or functional assay
[1] = biological target: T1, mouse Robo 4 on MS-1 mouse endothelial cells (mouse, UniProt Q8C310 28-1012)
T1 sequence: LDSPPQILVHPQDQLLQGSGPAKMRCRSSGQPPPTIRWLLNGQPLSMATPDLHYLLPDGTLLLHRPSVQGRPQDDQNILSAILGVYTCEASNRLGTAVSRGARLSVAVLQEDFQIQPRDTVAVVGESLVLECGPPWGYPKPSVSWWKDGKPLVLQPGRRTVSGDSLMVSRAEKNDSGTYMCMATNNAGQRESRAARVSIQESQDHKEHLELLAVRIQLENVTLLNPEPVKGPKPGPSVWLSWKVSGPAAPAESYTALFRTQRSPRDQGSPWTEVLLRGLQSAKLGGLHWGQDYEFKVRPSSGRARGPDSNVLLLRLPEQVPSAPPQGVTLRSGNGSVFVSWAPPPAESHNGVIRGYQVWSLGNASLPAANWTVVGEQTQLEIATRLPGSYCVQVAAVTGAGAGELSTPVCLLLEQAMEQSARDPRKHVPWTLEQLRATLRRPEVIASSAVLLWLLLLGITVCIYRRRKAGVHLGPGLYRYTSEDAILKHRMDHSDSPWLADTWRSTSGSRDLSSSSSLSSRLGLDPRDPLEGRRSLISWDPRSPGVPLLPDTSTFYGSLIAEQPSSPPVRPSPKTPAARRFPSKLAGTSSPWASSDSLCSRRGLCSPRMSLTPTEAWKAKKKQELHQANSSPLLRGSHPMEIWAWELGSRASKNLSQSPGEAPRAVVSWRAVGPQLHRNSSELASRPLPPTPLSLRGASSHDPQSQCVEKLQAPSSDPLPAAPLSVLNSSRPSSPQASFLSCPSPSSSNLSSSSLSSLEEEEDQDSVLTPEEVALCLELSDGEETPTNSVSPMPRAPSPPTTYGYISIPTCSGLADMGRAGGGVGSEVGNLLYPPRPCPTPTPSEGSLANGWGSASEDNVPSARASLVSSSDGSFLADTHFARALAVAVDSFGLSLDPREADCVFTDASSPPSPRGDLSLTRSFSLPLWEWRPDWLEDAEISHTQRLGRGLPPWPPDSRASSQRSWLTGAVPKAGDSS

[2] = biological target: T2, full-length human Robo 4 (on cells) (human, UniProt Q8WZ75 28-1007)
T2 sequence: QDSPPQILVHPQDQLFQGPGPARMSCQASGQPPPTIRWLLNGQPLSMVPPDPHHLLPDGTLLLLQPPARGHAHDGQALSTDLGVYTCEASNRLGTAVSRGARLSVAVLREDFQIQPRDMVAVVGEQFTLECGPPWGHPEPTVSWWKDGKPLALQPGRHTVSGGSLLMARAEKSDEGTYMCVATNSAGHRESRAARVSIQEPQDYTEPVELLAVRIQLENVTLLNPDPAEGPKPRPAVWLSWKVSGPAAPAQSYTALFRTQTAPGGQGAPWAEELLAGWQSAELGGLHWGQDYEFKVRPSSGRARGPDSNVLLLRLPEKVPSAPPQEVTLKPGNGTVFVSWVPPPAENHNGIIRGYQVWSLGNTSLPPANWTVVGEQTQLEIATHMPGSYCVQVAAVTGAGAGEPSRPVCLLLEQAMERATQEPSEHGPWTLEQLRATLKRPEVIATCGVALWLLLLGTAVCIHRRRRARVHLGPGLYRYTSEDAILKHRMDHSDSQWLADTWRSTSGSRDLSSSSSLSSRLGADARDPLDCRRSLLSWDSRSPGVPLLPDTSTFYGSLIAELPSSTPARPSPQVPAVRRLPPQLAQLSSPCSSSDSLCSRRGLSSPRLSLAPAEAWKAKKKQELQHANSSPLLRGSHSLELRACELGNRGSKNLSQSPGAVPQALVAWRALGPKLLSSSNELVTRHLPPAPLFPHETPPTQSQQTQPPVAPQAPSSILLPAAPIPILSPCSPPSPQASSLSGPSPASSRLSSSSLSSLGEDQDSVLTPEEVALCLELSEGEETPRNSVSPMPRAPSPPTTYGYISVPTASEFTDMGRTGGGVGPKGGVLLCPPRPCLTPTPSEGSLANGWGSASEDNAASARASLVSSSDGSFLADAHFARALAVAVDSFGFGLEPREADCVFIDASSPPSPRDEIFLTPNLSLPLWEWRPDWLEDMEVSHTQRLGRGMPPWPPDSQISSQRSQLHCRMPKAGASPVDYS

[3] = biological target: T2, full-length human Robo 4 (on cells); remark: listed apart in the source
[4] = biological target: T1, mouse Robo 4 on MS-1 mouse endothelial …; remark: listed apart in the source
[5] = biological target: T2, full-length human Robo 4 (on cells); remark: listed apart in the source

B1: Molecule F, 2+1 CrossFab-IgG (VH/VL exchange in CD3 binder, CD3 binder V9, Robo 4 binders 01F05) (bispecific antibody)
chain 1: not shown
chain 2: QVQLKQSGAELVKPGASVKISCKTSVYTFTYGYMHWVEQKPGQGLEWIGRIDPDSGNSMYNQKFQGRATLTRDKSSSTVYMELRSLTSEDSAVYYCARSMRYSGYRDYALDLWGQGTQVTVSSASTKGPSVFPLAPSSKSTSGGTAALGCLVKDYFPEPVTVSWNSGALTSGVHTFPAVLQSSGLYSLSSVVTVPSSSLGTQTYICNVNHKPSNTKVDKKVEPKSCDKTHTCPPCPAPEAAGGPSVFLFPPKPKDTLMISRTPEVTCVVVDVSHEDPEVKFNWYVDGVEVHNAKTKPREEQYNSTYRVVSVLTVLHQDWLNGKEYKCKVSNKALGAPIEKTISKAKGQPREPQVCTLPPSRDELTKNQVSLSCAVKGFYPSDIAVEWESNGQPENNYKTTPPVLDSDGSFFLVSKLTVDKSRWQQGNVFSCSVMHEALHNHYTQKSLSLSPGK
chain 3: QLVLTQSPSASASLGASVKLTCTLSSQHSSYGITWLQQHPDKAPKYVMYLKSDGSHTKGADIPDRFSGSSSGVHRYLSISNVQPEDEAIYFCVTYDSTHVFGSGTQLTVLGQPKAAPSVTLFPPSSEELQANKATLVCLISDFYPGAVTVAWKADSSPVKAGVETTTPSKQSNNKYAASSYLSLTPEQWKSHRSYSCQVTHEGSTVEKTVAPTECS
chain 4: EVQLVESGGGLVQPGGSLRLSCAASGYSFTGYTMNWVRQAPGKGLEWVALINPYKGVSTYNQKFKDRFTISVDKSKNTAYLQMNSLRAEDTAVYYCARSGYYGDSDWYFDVWGQGTLVTVSSASVAAPSVFIFPPSDEQLKSGTASVVCLLNNFYPREAKVQWKVDNALQSGNSQESVTEQDSKDSTYSLSSTLTLSKADYEKHKVYACEVTHQGLSSPVTKSFNRGEC
B1 was tested, and the “EC50 of T-cell mediated killing of MS-1 cells (LDH release, human PBMCs, E:T 10:1), 24 h” value [1] was about 0.164 nM, the “EC50 of T-cell mediated killing of MS-1 cells (LDH release, human PBMCs, E:T 10:1), 48 h” value [1] was 0.196 nM and the “EC50 of T-cell mediated killing of HUVECs (LDH release, human PBMCs, E:T 10:1), 24 h” value [2] was 0.104 nM. For the same binder, the “EC50 of T-cell mediated killing of HUVECs (LDH release, human PBMCs, E:T 10:1), 48 h” value [2] was 0.154 nM, the “EC50 of T-cell mediated killing of HUVECs (LDH release, human PBMCs, E:T 10:1), 24 h” value [3] was 0.065 nM and the “EC50 of T-cell mediated killing of HUVECs (LDH release, human PBMCs, E:T 10:1), 48 h” value [3] was 0.322 nM.

B2: Molecule I, 1+1 Fab-CrossFab (VH/VL exchange in CD3 binder, CD3 binder V9, Robo 4 binder 01F09) (bispecific antibody)
chain 1: QIQLQESGPGLVKPSQSLSLTCSVTGYSISSGSLWTWIRQFPGNNLEWMGYISYAGGIDYNPSLTSRISITRDTSRNQFFLQLESVTTQDTATYYCATPGGYPFHFDYWGQGTMVTVSSASTKGPSVFPLAPSSKSTSGGTAALGCLVKDYFPEPVTVSWNSGALTSGVHTFPAVLQSSGLYSLSSVVTVPSSSLGTQTYICNVNHKPSNTKVDKKVEPKSCDGGGGSGGGGSDIQMTQSPSSLSASVGDRVTITCRASQDIRNYLNWYQQKPGKAPKLLIYYTSRLESGVPSRFSGSGSGTDYTLTISSLQPEDFATYYCQQGNTLPWTFGQGTKVEIKSSASTKGPSVFPLAPSSKSTSGGTAALGCLVKDYFPEPVTVSWNSGALTSGVHTFPAVLQSSGLYSLSSVVTVPSSSLGTQTYICNVNHKPSNTKVDKKVEPKSC
chain 2: QPVLTQSPSASASLGASVKLTCTLNSQFSTYNIGWYQQHRDKPPKYVMFVKGDGGHSKADGIPDRFSGSSSGADRYLTISNIQAEDEAIYFCGADYNNAGQYGCVFGSGTHFTVLGQPKAAPSVTLFPPSSEELQANKATLVCLISDFYPGAVTVAWKADSSPVKAGVETTTPSKQSNNKYAASSYLSLTPEQWKSHRSYSCQVTHEGSTVEKTVAPTECS
chain 3: EVQLVESGGGLVQPGGSLRLSCAASGYSFTGYTMNWVRQAPGKGLEWVALINPYKGVSTYNQKFKDRFTISVDKSKNTAYLQMNSLRAEDTAVYYCARSGYYGDSDWYFDVWGQGTLVTVSSASVAAPSVFIFPPSDEQLKSGTASVVCLLNNFYPREAKVQWKVDNALQSGNSQESVTEQDSKDSTYSLSSTLTLSKADYEKHKVYACEVTHQGLSSPVTKSFNRGEC
In the case of B2, the “EC50 of T-cell mediated killing of MS-1 cells (LDH release, human pan T cells, E:T 5:1, 17 h)” value [4] is reported as 4.56 nM and the “EC50 of T-cell mediated killing of HUVECs (LDH release, human pan T cells, E:T 5:1, 22 h)” value [5] is reported as 0.198 nM.

B3: Molecule G, 1+1 Fab-CrossFab (VH/VL exchange in CD3 binder, CD3 binder V9, Robo 4 binder 01E06) (bispecific antibody)
chain 1: EVQLVESGGGLSQPGNSLKLSCEASGFTFRNYDMSWVRQAPGKGLEWVAYISSGGGPIYYVDAVKGRFTISRDNAKNLLFLQMNNLRSEDTAVYYCARDLADIGVFDYWGQGTMVTVSSASTKGPSVFPLAPSSKSTSGGTAALGCLVKDYFPEPVTVSWNSGALTSGVHTFPAVLQSSGLYSLSSVVTVPSSSLGTQTYICNVNHKPSNTKVDKKVEPKSCDGGGGSGGGGSDIQMTQSPSSLSASVGDRVTITCRASQDIRNYLNWYQQKPGKAPKLLIYYTSRLESGVPSRFSGSGSGTDYTLTISSLQPEDFATYYCQQGNTLPWTFGQGTKVEIKSSASTKGPSVFPLAPSSKSTSGGTAALGCLVKDYFPEPVTVSWNSGALTSGVHTFPAVLQSSGLYSLSSVVTVPSSSLGTQTYICNVNHKPSNTKVDKKVEPKSC
chain 2: DFKMTQSPDILSPSLGESVTITCQSSQNIYSNLAWYQQKPGEHPKLLIYTASILADGIPSRFTGSGSGTQFSLKISSLQPDDVANYYCQQYVYYRTFGPGTKLEIKRTVAAPSVFIFPPSDEQLKSGTASVVCLLNNFYPREAKVQWKVDNALQSGNSQESVTEQDSKDSTYSLSSTLTLSKADYEKHKVYACEVTHQGLSSPVTKSFNRGEC
chain 3: EVQLVESGGGLVQPGGSLRLSCAASGYSFTGYTMNWVRQAPGKGLEWVALINPYKGVSTYNQKFKDRFTISVDKSKNTAYLQMNSLRAEDTAVYYCARSGYYGDSDWYFDVWGQGTLVTVSSASVAAPSVFIFPPSDEQLKSGTASVVCLLNNFYPREAKVQWKVDNALQSGNSQESVTEQDSKDSTYSLSSTLTLSKADYEKHKVYACEVTHQGLSSPVTKSFNRGEC
With B3 the “EC50 of T-cell mediated killing of MS-1 cells (LDH release, human pan T cells, E:T 5:1, 17 h)” value [4] was 0.352 nM and the “EC50 of T-cell mediated killing of HUVECs (LDH release, human pan T cells, E:T 5:1, 22 h)” value [5] was 0.036 nM.

B4: Molecule C, 1+1 CrossFab-IgG (VH/VL exchange in CD3 binder, CD3 binder V9, Robo 4 binder 01E06) (bispecific antibody)
chain 1: not shown
chain 2: DFKMTQSPDILSPSLGESVTITCQSSQNIYSNLAWYQQKPGEHPKLLIYTASILADGIPSRFTGSGSGTQFSLKISSLQPDDVANYYCQQYVYYRTFGPGTKLEIKRTVAAPSVFIFPPSDEQLKSGTASVVCLLNNFYPREAKVQWKVDNALQSGNSQESVTEQDSKDSTYSLSSTLTLSKADYEKHKVYACEVTHQGLSSPVTKSFNRGEC
chain 3: EVQLVESGGGLVQPGGSLRLSCAASGYSFTGYTMNWVRQAPGKGLEWVALINPYKGVSTYNQKFKDRFTISVDKSKNTAYLQMNSLRAEDTAVYYCARSGYYGDSDWYFDVWGQGTLVTVSSASVAAPSVFIFPPSDEQLKSGTASVVCLLNNFYPREAKVQWKVDNALQSGNSQESVTEQDSKDSTYSLSSTLTLSKADYEKHKVYACEVTHQGLSSPVTKSFNRGEC
chain 4: DKTHTCPPCPAPEAAGGPSVFLFPPKPKDTLMISRTPEVTCVVVDVSHEDPEVKFNWYVDGVEVHNAKTKPREEQYNSTYRVVSVLTVLHQDWLNGKEYKCKVSNKALGAPIEKTISKAKGQPREPQVCTLPPSRDELTKNQVSLSCAVKGFYPSDIAVEWESNGQPENNYKTTPPVLDSDGSFFLVSKLTVDKSRWQQGNVFSCSVMHEALHNHYTQKSLSLSPGK
B4 was tested, and the “EC50 of T-cell mediated killing of MS-1 cells (LDH release, human pan T cells, E:T 5:1, 17 h)” value [4] was 0.472 nM and the “EC50 of T-cell mediated killing of HUVECs (LDH release, human pan T cells, E:T 5:1, 22 h)” value [5] was 0.046 nM.
